{"source": "the NTF2 design screens of Basanta et al. (2020)", "data": [{"assay": "protease stability score; higher = more stable; yeast display proteolysis, trypsin and chymotrypsin;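 note: log10 excess protease needed over predicted unfolded state with 0 meaning unfolded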", "values": [{"sequence": "DEKDKATKMMETIKQAWDRNNPQQVASQFDKDAHIRVGDKMIHGHEQLKEFVQDVLDTYDHIKLTVTSVKQHNGRVVIVVQVHLEHNGRNDTRHYVVIIEVDNGHIRIKTMVDK", "protease stability score": 1.16}, {"sequence": "DEKDKDVADELRKAYHTGDHNRLREMVDKDVKFQVGDQDYHGRETFMKLNHTERNEIRIEIQSIRVHVHNGRVTVKQVVVREHNGRPTRMQQVLTIDAHNGKIKKMFIKDDQ", "protease stability score": 0.069}, {"sequence": "DEKDLEELAKDVIEAYQDGDEQRLRNNFDKDARWHIGDKTFHGRERNVRHLVEEAKRVDHIHVTTMEVQGNTVRMVLRMNHNGKSDHVDIQITFENGRAQSVTVTKP", "protease stability score": 0.369}, {"sequence": "DEKDMEQQDRVFRHGNEKKLEDLVDEDARVEVGNRRYHGREQVVRFFQQQVKQVDHRTIRSVKLTGDKFDAVLQVVINGQTYTYRFKAKVHNGKVKVLRVEFTDPQREKEFEKQLD", "protease stability score": 0.206}, {"sequence": "DEKDNKTLHKIIRHGDWKKLQDLADENASVDIGNKKFHGRREVSKAMERLREKVDSVQYHSITVEGNSARIVYNLEVNGNRVKVQMKFSMHNGHLQEVVIRATNEEDSKKIDKQLG", "protease stability score": 0.724}, {"sequence": "DEKDNKTYADKVAEMLKHNDPRTARELVDPNAKVQVGDSEVHGREQIENLIKTWNEQVDHVEIKKYRVEGDKVEITFVAESNGKRTHFKVVLKVRNGRATHMTIKRK", "protease stability score": 0.157}, {"sequence": "DEKDQEQILRELAEIMKSGDEHEMENLADENVKVKIGDKTLKGKEQFRHQLKRERDRVDHLKILDMEAQGDRFIIRWQEEFNGQTRRMQVDIHIKNGKIKSAEYRHQ", "protease stability score": 0.579}, {"sequence": "DEKDQTRKAEKAARIFQHGNPDDVREMADEDVKVQIGDNRINGRHNLDTEVKELRDRVDDAKIEDFRASGNTIVLHIRFVVDGVDVHITIHINYHNGKAKRIDVKYTDERQKRRQDS", "protease stability score": 0.739}, {"sequence": "DEKDVEKIMKKMDETFVKGNTEELEKLGKEDVEVQYGDKREKGPDAIRKVLEKVKQLGIKVEYKEVHIKGDTATVKVEADMAGQTARFEVTYVVRGNRVDRVVVKYDEEAQKVIKHG", "protease stability score": 0.772}, {"sequence": "DEKDVEKLQRLIKTGNEDHIANEADPNVQVTIGDDVIHGREEAVRQIQKWQRQVDHVEIKSMESQGEKVHVRRVLTVNGKNFEFTLQAEMHNGTLTHFDIQFRSEEDNKRFLKVVS", "protease stability score": 0.32}, {"sequence": "DEKDVERVLEAIKTNNRSEIRNQADPNARARVGDKKLHGMEDAAHKFAKFLDRADNHEVKDVSVDGDRATMDVKVRVDGEDVRFVVKFQVKNGRITHLEVEATSDHVDRRAEQAMK", "protease stability score": 0.581}, {"sequence": "DEKDVHLARKYYQNFRDGDPDKLKRMADKDAKMSVGDKHLHGMEKIATDLQREHEEMHIDRKIDDVKVNGDKAIVHLKVNINVDGKPTSDSVTVIFKFENGKITTLEYRFDPDKQRKINK", "protease stability score": 0.294}, {"sequence": "DEKDVKTAVKDFNTGSFDRFKDLADKDVTARIGNHTVKGHENFQHMMKNLKDRIDHFDVDSMTIKGNEAQMEYRFEINGHDIVVILRVDIHNGRIKHMEVEFRNEEQKKRFDDNQG", "protease stability score": 0.945}, {"sequence": "DEKDVRILEEYVNAWNTNDPDTLNNLADPNARFKIGNKEFQGRDTLDRLAKQLRKEMRVTVHDVHAKDDDGRVDAKVDAVMHYNGKPNRDTFHFDAKVHNGRIRELNVQFDEKRKKKVDS", "protease stability score": -0.065}, {"sequence": "DEKDVRRLSKYLRALQKNDPDEVRRMADPNAKAEVGDKRIHGRDEFSKHVETRRRQMRITIEHYEIKNQGDKVELNVVRRSEHNGKPRRNSVRATYVFDNGKIHSYSVKHVP", "protease stability score": -0.133}, {"sequence": "DEKEAEHVSRLVRENDFQTLRDQADKDARVRIGDREVHGRERLRSQLHKLERRIDSLEVHRVNNHPNHFHVDVVITVNGQKVTFRLNIHVHNGRIKSIEIEFTDEDQKRNMNEVFS", "protease stability score": -0.081}, {"sequence": "DEKEAKKLLEQFAKKVVNGDYEEVVKHVKDDGEAEYGDERKHGPDAVETFIRKYQKLGIKVTYDEVHVEGDTVTVKVRADYAGQTAHFKFQYHVRDQRLDRVEVKYDETAQKMIKHG", "protease stability score": 0.542}, {"sequence": "DEKEAQKLLEKIAKTMKNGDTETAKKLGKDDVEVKYADDEHHGPDAIKKMLEKLKKLGLEVEYKEIHVEGDTVRVKVQVHHGGTTAHMEVEYQARGRKVDNMRVKYDERAKKLIKHG", "protease stability score": 0.471}, {"sequence": "DEKEDKKVLERMAKLFVSGNKEEVQKMGKDDVEVVYGDETYHGPDAARKVIERVKKLGAKVEYKEVHVEGDTMTAKVEADIAGKRVRFHVTYKATGNRVDRMEVKYTKEAQEVIKHG", "protease stability score": 0.895}, {"sequence": "DEKEDLTRWIEQFVHNLEHGDEERLSQLADPNARFKYGDRTLHGMENAIKTLADVMRRVDQVRIRINDITHHENRVIVDLSFVLNHNGQERHYNAKMVAYIHNGTFRIETASMK", "protease stability score": 0.929}, {"sequence": "DEKEDRKLLQQLAEMFQNGDVERVRKLGKDDVEAEYGDERQHGPDAMKKFVERVKKLGAKVEYKEVHVEGDTVTAKVQADYAGQTVEMHVTYQAQGRRMDRVKVKYDETAQKVIKHG", "protease stability score": 0.566}, {"sequence": "DEKEEAEKFFEQYKHALHRGDPDQMANLADKDVRAEIGDKVVHGRDQLMTYVKTLKEHYDDISLKLKDVQVSGDKAQLHAVLTLNHNGKNDKIHIVIRMVRQGDELVMTSITYR", "protease stability score": 0.935}, {"sequence": "DEKEEAHRALTAMHKMMTGDFKEVMKNADENVHVEIGDKEFHGREDLHDFAREIQERVDDFRVSSVTAKGDSAVLNVRQDYNGRNERVRLEVQVSNGKIKHVRFQTG", "protease stability score": -0.341}, {"sequence": "DEKEEARELMERLREIIETGNEREAKKLADKDARNNVGDKVLHGREEIVRQLITLYKTADHVDLKFRDYRVDNGKFTMDMKVRFHHNGNTIERRYQMSFDTHNGRLTATRYRNS", "protease stability score": 1.06}, {"sequence": "DEKEHATEWLEDWQQQLRTGDEKSVANLFDPNARLNVGDKEVHGREDFEKEQKKIREEADHVDVEIVDLKTSPGHIQMFFNLRQTHNGQRQSHREVMVLRLQGDEVRVVKVEHN", "protease stability score": -0.056}, {"sequence": "DEKEHEDVAQEAVHAVQSGDPKQMVEMADPNARVVVGDKTLHGHDRIEEMVKHLRKRADHVRIIDVQVQGDKVVIRFQVVVDGRTYDVYIDLRVHNGEAKEIRFDPRRQKEMHG", "protease stability score": 0.758}, {"sequence": "DEKEIHEIAETFVEVLRNGNHDDLKELMDENVKLVYGDKELQGHHRAASHLAELVSRVDHMSVDSITVNGDSVKVIMQFVVNGVTAHITIIIKMTNGRIKELEIRYTNEDQRRQVDK", "protease stability score": 0.941}, {"sequence": "DEKEIQKLLEQLMKMFVNGNDEQIKKLGKDDVEATYMDEKVTGPDKVVELVKKYMDLGVKVEYKEEHVEGDKATAKVEADAGGQTVRFHVHYKATGRKMDRVEVQYDETAKKVIKHG", "protease stability score": -0.131}, {"sequence": "DEKEIRKLLETMLKAFVNGNLEVVRKMLKDDGEVEYLDTRRHGPDRAVELVKRLLDLGYEVEYKEVHVKGDTVTANVEANADGKTVRFQVTYQARGRRVDNFKVKYDEDAQKVIKHG", "protease stability score": 1.79}, {"sequence": "DEKEIRKLLQKMAKMFEEGNNEELRKLGDDDLQVTYGDEEYKGPDDLVKVLETVKKLGAKVEYKEVHVEGDTVTVKVEAEMGGRKARYKVKYQADGNKVKRFQVEYSEDAQKAIKEG", "protease stability score": 1.28}, {"sequence": "DEKEKAEDFMRKMQKIAKTNNPTELDDQFDEDAKLVVGDKRYHGRKQMQKHYKELRKRVDHFRLEVKRIDVSGDKVRFDAKYEADVNGRRETVDMRFVVRRVGDKDRAENAQWK", "protease stability score": 0.285}, {"sequence": "DEKEKAKKMFEKWHDVWRTNDPKKMNELADKDARINVGEKNYHGREHVEKIWRDLMERIDHVQLRVQTITSTGDKVEIRATVVIDHNGKQDEDTYVYVFQIDNGTVSFVQVRQS", "protease stability score": 0.576}, {"sequence": "DEKEKLKQLARKFHKAMQTGDEDELKKNVDENVRADYGDRRYHGSEELAKWLREMKTKVDHLSMTIKDIRVKGDRAEIELEMTFDHNGRQETRQFTLQAQVHNGSLKIVQIRQS", "protease stability score": 1.32}, {"sequence": "DEKELKKVLERLVKAFKNGNTEEAKKLGKDDVQVEYGDEKYEGPDAMRTVLERVKKLGYEVEYKEEHYKGDTVTVKVEANLGGRTAKFRFQYQVQGQRVDKVKVEYSETAQKQIKHG", "protease stability score": -0.106}, {"sequence": "DEKELKKVLKTVVEYLKNGKAERVVKHLHDDVQVIYDDEEVHGADKFKEMVEKFQKLGYKVEYKEVHVEGDTATVKVQVDAGGETAEFHVTYQATGQKVDRMEVKYDERAQKVIKHG", "protease stability score": 1.14}, {"sequence": "DEKELNDLKRVVRHGDEDRLEELMDEDVRMKVGNKEISGRSHAVKVMKKLNEKADHIEIKDIKISGEKVVVDLVFEVNGTKIKMRLIIVVRNGKIKHAQIEVTDEEVEDNLHKFLD", "protease stability score": 0.972}]}]}
